Consider five molecules from doi:10.1101/577460 (bioRxiv, 2019).

The target of series [1] is T1, barrier-to-autointegration factor (BAF) (human, UniProt O75531 1-89).
T1 sequence (looked up): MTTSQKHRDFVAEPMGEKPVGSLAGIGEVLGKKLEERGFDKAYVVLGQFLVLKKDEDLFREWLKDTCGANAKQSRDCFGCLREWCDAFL
Briefly: SEC. Background: Size exclusion chromatography separates by hydrodynamic size, large species first.

The series “co-sedimentation” concerns the molecule itself. The series is described as follows: co-sedimentation.
The series “negative stain EM” concerns the molecule itself. Briefly: negative stain EM.
A further series concerns the target T2, full-length human CHMP7 (human, UniProt Q8WUX9 1-453).
T2 sequence (looked up): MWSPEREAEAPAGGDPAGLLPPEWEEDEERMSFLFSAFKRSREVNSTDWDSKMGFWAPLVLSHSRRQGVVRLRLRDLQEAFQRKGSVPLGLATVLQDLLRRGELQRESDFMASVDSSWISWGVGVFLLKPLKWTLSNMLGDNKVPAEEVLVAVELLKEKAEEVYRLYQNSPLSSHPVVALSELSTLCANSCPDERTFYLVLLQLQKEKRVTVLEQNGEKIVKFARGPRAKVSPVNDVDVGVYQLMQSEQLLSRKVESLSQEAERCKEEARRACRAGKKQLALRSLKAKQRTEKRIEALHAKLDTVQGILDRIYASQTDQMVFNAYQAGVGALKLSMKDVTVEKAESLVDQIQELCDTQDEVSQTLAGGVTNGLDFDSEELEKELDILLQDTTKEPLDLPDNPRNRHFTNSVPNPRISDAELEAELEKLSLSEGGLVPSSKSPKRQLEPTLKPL
The series is described as follows: cross-linking.

B1: LEM2_(1-72) (domain or fragment, human, UniProt Q8NC56 1-72, looked up)
chain: MAGLSDLELRRELQALGFQPGPITDTTRDVYRNKLRRLRGEARLRDEERLREEARPRGEERLREEARLREDA
For the molecule B1, the binding result in series [1] was “binds”.

B2: CHMP7_(R270E + I312E) (natural protein, human, UniProt Q8WUX9 1-453, looked up)
chain: MWSPEREAEAPAGGDPAGLLPPEWEEDEERMSFLFSAFKRSREVNSTDWDSKMGFWAPLVLSHSRRQGVVRLRLRDLQEAFQRKGSVPLGLATVLQDLLRRGELQRESDFMASVDSSWISWGVGVFLLKPLKWTLSNMLGDNKVPAEEVLVAVELLKEKAEEVYRLYQNSPLSSHPVVALSELSTLCANSCPDERTFYLVLLQLQKEKRVTVLEQNGEKIVKFARGPRAKVSPVNDVDVGVYQLMQSEQLLSRKVESLSQEAERCKEEAERACRAGKKQLALRSLKAKQRTEKRIEALHAKLDTVQGILDREYASQTDQMVFNAYQAGVGALKLSMKDVTVEKAESLVDQIQELCDTQDEVSQTLAGGVTNGLDFDSEELEKELDILLQDTTKEPLDLPDNPRNRHFTNSVPNPRISDAELEAELEKLSLSEGGLVPSSKSPKRQLEPTLKPL
For the molecule B2, the binding result in the series “co-sedimentation” is on record as “binds”.

B3: CHMP7_(R270E + V339D) (natural protein, human, UniProt Q8WUX9 1-453, looked up)
chain: MWSPEREAEAPAGGDPAGLLPPEWEEDEERMSFLFSAFKRSREVNSTDWDSKMGFWAPLVLSHSRRQGVVRLRLRDLQEAFQRKGSVPLGLATVLQDLLRRGELQRESDFMASVDSSWISWGVGVFLLKPLKWTLSNMLGDNKVPAEEVLVAVELLKEKAEEVYRLYQNSPLSSHPVVALSELSTLCANSCPDERTFYLVLLQLQKEKRVTVLEQNGEKIVKFARGPRAKVSPVNDVDVGVYQLMQSEQLLSRKVESLSQEAERCKEEAERACRAGKKQLALRSLKAKQRTEKRIEALHAKLDTVQGILDRIYASQTDQMVFNAYQAGVGALKLSMKDDTVEKAESLVDQIQELCDTQDEVSQTLAGGVTNGLDFDSEELEKELDILLQDTTKEPLDLPDNPRNRHFTNSVPNPRISDAELEAELEKLSLSEGGLVPSSKSPKRQLEPTLKPL
With B3, the binding result in “co-sedimentation” was “binds”.

B4: CHMP7_(229-453) (domain or fragment, human, UniProt Q8WUX9 229-453, looked up)
chain: AKVSPVNDVDVGVYQLMQSEQLLSRKVESLSQEAERCKEEARRACRAGKKQLALRSLKAKQRTEKRIEALHAKLDTVQGILDRIYASQTDQMVFNAYQAGVGALKLSMKDVTVEKAESLVDQIQELCDTQDEVSQTLAGGVTNGLDFDSEELEKELDILLQDTTKEPLDLPDNPRNRHFTNSVPNPRISDAELEAELEKLSLSEGGLVPSSKSPKRQLEPTLKPL
On to B4, for which, in “negative stain EM”, the binding result was “binds”.

B5: His6-SUMO-LEM2_(395-503) (domain or fragment, human, UniProt Q8NC56 395-503, looked up)
chain: ILLKYRWRKLEEEEQAMYEMVKKIIDVVQDHYVDWEQDMERYPYVGILHVRDSLIPPQSRRRMKRVWDRAVEFLASNESRIQTESHRVAGEDMLVWRWTKPSSFSDSER
B5: the binding result with full-length human CHMP7 is reported as “binds”.
